This assay has as its target rabbit skeletal muscle F-actin (rabbit) (UniProt P68135). Kind of assay: co-sedimentation; high-speed F-actin cosedimentation: 5 uM UtrN-R3 incubated 30 min with 0-160 uM phalloidin-stabilized F-actin, 100,000g for 20 min; F-buffer (4.5 mM Tris-HCl pH 8.0, 0.18 mM CaCl2, 50 mM KCl, 2 mM MgCl2, 1.2 mM ATP, 0.5 mM DTT); bound and free by densitometry of Coomassie gels, hyperbola fit.

The text below walks through data of article PMC9922815.

For orientation: Kd means the constant that tells how readily two partners part at equilibrium. Low values mean tighter binding, high ones weaker binding. “UtrN-R3 WT, bacterially derived (mouse utrophin fragment encoding the N terminus through spectrin repeat 3, not phosphorylated) (from UniProt E9Q6R7 1-3430) (domain or fragment)” returned a Kd of 105 µM.

As for “UtrN-R3 WT, insect cell-derived (mouse utrophin fragment encoding the N terminus through spectrin repeat 3, phosphorylated) (from UniProt E9Q6R7 1-3430) (domain or fragment)”, the Kd was determined as 84.5 µM. The Kd values of the last two substances are within 1.5-fold of each other.
